{"source": "paper PMC6045382", "target": "thrombin (UniProt P00734;P00734 328-363;364-622)", "experiment": "19F NMR", "data": [{"binder": "GGTTGGTGTGGTTGG (structured_DNA, dT9 replaced by 5-[{3,5-bis(trifluoromethyl)phenyl}ethynyl]-2'-deoxyuridine)", "note": "[T9 (19F-labeled TBA)]", "values": [{"measurement": "binding result", "result": "binds"}]}]}
